The source of these data is paper PMC10333293, “Membrane recruitment of the polarity protein Scribble by the cell adhesion receptor TMIGD1” (Communications Biology, 2023).

As usually defined, the Kd is the equilibrium constant for the complex coming apart. What is called stoichiometry N is the number of molecules, sites or subunits per partner or assembly.

One assay concerns the target APC PBM (Homo sapiens) (UniProt P25054). Particulars: cited from earlier work.
In assay [1] the target is T1, human Scribble PDZ domain 1 (hScrib/PDZ1, AA 728-815) (human, UniProt Q14160 728-815).
T1 construct: human Scribble (Scrib), PDZ domain 1, residues 728-815; source: E. coli BL21 (DE3) CodonPlus or pLysS, purified, tag cleaved
T1 sequence (Q14160 728-815): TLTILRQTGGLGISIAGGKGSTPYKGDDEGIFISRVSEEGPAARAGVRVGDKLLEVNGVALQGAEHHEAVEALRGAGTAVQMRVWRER
Description: ITC; purified PDZ domain at 75 uM against the 8-mer peptide at 900-1100 uM, 20 injections, 25 °C, 25 mM Tris-HCl pH 8.0, 150 mM NaCl, 5 mM TCEP, one-site binding model. Particulars: both partners purified.

Assay [2] has as its target T2, human Scribble PDZ domain 3 (hScrib/PDZ3, AA 1005-1094) (human, UniProt Q14160 1005-1094).
T2 construct: human Scribble (Scrib), PDZ domain 3, residues 1005-1094; source: E. coli BL21 (DE3) CodonPlus or pLysS, purified, tag cleaved
T2 sequence (looked up): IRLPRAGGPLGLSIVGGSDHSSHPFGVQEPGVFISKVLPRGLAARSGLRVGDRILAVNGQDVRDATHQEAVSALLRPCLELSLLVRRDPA
The assay is described as above. As to conditions: both partners purified.

The target of the next assay is T3, hScrib/PDZ1 (AA 728-815) (human, UniProt Q14160 728-815).
T3 construct: Scribble, human, PDZ1 domain, AA 728-815; In pGEX-6P-3 or pGIL-MBP; also called PDZ domain 1 of Scrib; source: E. coli BL21 (DE3) CodonPlus or pLysS, purified
T3 sequence (Q14160 728-815): as the sequence (Q14160 728-815) above
Description: ITC; peptide (900-1100 µM) titrated into PDZ domain (75 µM); 25 mM Tris-HCl pH 8.0, 150 mM NaCl, 5 mM TCEP; 25 °C; 20 injections; one-site binding model. As to conditions: both partners purified. Background: Isothermal titration calorimetry measures the heat released or taken up as one component is titrated into another.

Assay [3] concerns the target T4, hScrib/PDZ3 (AA 1005-1094) (human, UniProt Q14160 1005-1094).
T4 construct: Scribble, human, PDZ3 domain, AA 1005-1094; In pGEX-6P-3 or pGIL-MBP; source: E. coli BL21 (DE3) CodonPlus or pLysS, purified
T4 sequence (looked up): T2 sequence (looked up)
Described as above. Particulars: both partners purified.

Sequence of APC PBM (Homo sapiens) (P25054 whole entry, looked up, the tested form may be a part): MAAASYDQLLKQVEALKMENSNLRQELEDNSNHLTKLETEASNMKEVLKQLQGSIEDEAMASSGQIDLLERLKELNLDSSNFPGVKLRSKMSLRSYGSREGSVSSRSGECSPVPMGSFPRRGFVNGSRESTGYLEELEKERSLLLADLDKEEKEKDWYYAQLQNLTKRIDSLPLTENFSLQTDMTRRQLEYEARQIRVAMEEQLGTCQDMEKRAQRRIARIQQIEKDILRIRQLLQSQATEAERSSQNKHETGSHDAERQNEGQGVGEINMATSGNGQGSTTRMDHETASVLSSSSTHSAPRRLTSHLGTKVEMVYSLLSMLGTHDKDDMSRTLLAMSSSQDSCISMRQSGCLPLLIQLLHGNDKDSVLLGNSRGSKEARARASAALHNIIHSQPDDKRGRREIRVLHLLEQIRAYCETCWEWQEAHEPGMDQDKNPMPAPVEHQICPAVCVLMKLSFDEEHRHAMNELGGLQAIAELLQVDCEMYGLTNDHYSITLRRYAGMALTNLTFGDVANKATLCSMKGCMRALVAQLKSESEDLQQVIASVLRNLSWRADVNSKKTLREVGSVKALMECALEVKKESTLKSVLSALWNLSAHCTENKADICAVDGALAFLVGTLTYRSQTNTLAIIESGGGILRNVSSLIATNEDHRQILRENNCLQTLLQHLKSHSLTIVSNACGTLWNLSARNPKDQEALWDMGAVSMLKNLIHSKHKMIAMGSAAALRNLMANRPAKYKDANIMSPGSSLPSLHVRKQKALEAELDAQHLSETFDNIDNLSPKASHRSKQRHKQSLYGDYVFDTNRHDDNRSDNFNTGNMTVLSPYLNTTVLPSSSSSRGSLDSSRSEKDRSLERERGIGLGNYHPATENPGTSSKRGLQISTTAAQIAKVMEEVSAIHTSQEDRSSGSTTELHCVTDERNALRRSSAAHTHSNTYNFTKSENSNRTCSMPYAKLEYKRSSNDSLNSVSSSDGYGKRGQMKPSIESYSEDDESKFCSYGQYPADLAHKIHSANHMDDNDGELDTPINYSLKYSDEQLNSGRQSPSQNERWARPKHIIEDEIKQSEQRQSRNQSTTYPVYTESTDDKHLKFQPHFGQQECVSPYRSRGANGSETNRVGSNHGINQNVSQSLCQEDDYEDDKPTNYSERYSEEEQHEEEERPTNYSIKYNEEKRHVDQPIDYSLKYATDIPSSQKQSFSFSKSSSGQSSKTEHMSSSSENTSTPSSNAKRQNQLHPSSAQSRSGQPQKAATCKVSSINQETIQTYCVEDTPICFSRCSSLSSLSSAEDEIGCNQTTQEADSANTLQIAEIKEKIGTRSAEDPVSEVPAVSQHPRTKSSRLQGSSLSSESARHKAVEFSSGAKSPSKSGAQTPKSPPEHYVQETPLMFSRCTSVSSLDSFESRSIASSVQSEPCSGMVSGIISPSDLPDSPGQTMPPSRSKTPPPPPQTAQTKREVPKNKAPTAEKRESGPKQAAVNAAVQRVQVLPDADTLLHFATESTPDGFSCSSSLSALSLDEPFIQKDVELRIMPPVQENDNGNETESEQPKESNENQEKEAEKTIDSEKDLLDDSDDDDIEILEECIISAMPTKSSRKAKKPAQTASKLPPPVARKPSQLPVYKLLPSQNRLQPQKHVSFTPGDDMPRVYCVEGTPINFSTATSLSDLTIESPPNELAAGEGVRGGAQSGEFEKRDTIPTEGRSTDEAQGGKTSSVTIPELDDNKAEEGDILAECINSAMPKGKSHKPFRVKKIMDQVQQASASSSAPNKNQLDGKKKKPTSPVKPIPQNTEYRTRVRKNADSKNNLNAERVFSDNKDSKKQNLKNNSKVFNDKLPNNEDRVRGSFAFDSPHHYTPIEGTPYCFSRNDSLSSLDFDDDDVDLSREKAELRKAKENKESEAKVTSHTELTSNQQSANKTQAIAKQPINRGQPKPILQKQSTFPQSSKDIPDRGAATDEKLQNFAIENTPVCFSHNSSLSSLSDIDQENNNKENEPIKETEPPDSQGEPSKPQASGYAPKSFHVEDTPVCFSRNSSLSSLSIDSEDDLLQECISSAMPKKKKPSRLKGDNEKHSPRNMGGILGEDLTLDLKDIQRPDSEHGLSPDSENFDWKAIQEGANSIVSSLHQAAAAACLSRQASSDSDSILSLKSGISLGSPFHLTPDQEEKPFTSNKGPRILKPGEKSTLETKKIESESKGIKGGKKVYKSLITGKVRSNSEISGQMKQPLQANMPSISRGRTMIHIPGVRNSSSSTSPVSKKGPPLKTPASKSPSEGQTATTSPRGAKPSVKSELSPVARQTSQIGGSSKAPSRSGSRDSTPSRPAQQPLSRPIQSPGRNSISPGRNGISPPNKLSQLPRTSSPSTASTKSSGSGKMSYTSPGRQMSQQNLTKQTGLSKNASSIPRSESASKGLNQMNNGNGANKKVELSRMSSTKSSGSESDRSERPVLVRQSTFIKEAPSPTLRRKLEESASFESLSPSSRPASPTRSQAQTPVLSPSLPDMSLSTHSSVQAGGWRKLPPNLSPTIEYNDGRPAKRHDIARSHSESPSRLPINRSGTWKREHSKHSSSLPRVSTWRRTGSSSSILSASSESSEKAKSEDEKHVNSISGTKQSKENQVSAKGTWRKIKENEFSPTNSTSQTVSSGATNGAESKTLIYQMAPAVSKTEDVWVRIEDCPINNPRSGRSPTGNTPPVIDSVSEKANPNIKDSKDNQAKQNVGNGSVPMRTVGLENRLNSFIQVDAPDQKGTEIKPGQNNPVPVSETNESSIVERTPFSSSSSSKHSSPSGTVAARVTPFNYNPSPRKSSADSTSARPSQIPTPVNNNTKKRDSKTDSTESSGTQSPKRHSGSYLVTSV

Turning to Scribble PDZ1 (from UniProt Q14160), in the assay with APC PBM (Homo sapiens), the Kd is 6 µM.

B1: C-terminally derived 8-mer human TMIGD1 peptide (peptide)
peptide: DPHSETAL
notes: also called TMIGD1/WT; TMIGD1 PBM peptide; source: synthetic peptide, obtained from Genscript
On to B1, for which the figures for the “stoichiometry N” value in assay [1] and in assay [2] were 0.95 ± 0.07 and 0.93 ± 0.04, respectively.

B2: C-terminally derived 8-mer human TMIGD1 peptide (DPHSETAL) (peptide)
peptide: DPHSETAL
notes: TMIGD1, human, the eight C-terminal residues with the PBM (SETAL), free C-terminal carboxyl; also called TMIGD1/WT; TMIGD1 PBM peptide; source: synthetic peptide (Genscript)
For the molecule B2, the Kd with hScrib/PDZ1 (AA 728-815) turned out to be 18.2 µM; in assay [3] it was 9.12 µM.
